Test results reported in publication PMC8303780, “Mutational Analysis of Redβ Single Strand Annealing Protein: Roles of the 14 Lysine Residues in DNA Binding and Recombination In Vivo”.
Where a chain is given by its changes, count along the chain named.

What was measured:
Experiment in all cases: EMSA; strands added sequentially; Anisotropy: 50 mM Tris-HCl pH 7.5, 1 mM DTT, 0.1 mg/mL BSA, 10 nM FAM48, 23 °C (Kd per monomer); gel assay: 10 µM Redβ, 50 µM nt of each oligo, PBS, 37 °C, 1% agarose at 22 °C
Details in all cases: protein: recombinant; tags: 6xHis removed by thrombin; residual N-terminal GSH; label: 5'-Cy3 and 5'-Cy5; complementary 50-mers; annealed by protein
Redβ K245A = biological target: T1, Redβ K245A (bacteriophage λ, UniProt P03698 1-261, K245A)
T1 sequence: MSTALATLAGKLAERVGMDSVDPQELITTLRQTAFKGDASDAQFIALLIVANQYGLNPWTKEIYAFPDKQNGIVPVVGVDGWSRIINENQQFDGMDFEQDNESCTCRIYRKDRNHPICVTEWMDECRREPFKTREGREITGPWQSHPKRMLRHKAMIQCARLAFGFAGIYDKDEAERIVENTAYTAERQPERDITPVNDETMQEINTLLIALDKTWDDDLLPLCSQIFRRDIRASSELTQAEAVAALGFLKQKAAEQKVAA

Redβ K61A = biological target: T2, Redβ K61A (bacteriophage λ, UniProt P03698 1-261, K61A)
T2 sequence: T1 sequence with K61A, A245K

Redβ K251A = biological target: T3, Redβ K251A (bacteriophage λ, UniProt P03698 1-261, K251A)
T3 sequence: T1 sequence with A245K, K251A

Redβ K258A = biological target: T4, Redβ K258A (bacteriophage λ, UniProt P03698 1-261, K258A)
T4 sequence: T1 sequence with A245K, K258A

Redβ WT = biological target: T5, Redβ WT (bacteriophage λ, UniProt P03698 1-261)
T5 sequence: T1 sequence with A245K

Redβ K111A = biological target: T6, Redβ K111A (bacteriophage λ, UniProt P03698 1-261, K111A)
T6 sequence: T1 sequence with K111A, A245K

B1: annealed duplex of Cy3 and Cy5 50-mers, strands added sequentially (dsDNA)
DNA 1: GCGGATGGCTTAGAGCAGAATCGCCCTGCATAGCTCGATTTTTGCGGATG
DNA 2: CCATCCGCAAAAATCGAGCTATGCAGGGCGATTCTGCTCTAAGCCATCCG
B1: binds (Redβ K245A); no binding (Redβ K61A); binds (Redβ K251A). B1: binds (Redβ K258A); binds (Redβ WT); no binding (Redβ K111A).
